T1: EsCas13d, nuclease-dead (Eubacterium siraeum, UniProt B0MS50, R295A;H300A;R849A;H854A)
T1 sequence: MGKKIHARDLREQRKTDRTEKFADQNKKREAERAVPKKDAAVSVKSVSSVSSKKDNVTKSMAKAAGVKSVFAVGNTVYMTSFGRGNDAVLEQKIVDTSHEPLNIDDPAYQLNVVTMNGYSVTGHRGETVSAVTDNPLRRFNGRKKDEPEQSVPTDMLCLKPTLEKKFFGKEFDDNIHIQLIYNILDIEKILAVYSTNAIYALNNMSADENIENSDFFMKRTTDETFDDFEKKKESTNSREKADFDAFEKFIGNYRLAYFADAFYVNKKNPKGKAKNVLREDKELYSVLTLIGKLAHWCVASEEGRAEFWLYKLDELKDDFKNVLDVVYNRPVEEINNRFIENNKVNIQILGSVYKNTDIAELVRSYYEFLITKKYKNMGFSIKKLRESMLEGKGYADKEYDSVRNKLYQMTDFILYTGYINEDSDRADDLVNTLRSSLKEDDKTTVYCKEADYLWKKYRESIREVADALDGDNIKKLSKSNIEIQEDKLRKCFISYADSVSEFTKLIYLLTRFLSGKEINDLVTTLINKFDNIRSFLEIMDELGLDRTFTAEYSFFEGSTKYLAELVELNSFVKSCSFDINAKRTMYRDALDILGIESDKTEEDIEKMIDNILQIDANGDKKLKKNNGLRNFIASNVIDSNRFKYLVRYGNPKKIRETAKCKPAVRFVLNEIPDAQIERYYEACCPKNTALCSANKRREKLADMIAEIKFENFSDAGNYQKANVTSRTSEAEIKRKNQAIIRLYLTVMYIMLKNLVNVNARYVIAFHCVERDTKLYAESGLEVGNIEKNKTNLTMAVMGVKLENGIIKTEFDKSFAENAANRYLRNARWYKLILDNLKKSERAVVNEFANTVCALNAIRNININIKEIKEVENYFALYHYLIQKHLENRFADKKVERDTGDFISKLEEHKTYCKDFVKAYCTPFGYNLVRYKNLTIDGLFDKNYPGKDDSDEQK


Target: T1, EsCas13d, nuclease-dead
Assay: crRNA (strand 1, pre-loaded); Mg2+; 40 mM Tris-HCl pH 7.5, 150 mM NaCl, 6 mM MgCl2, 1 mM DTT, 0.1% Tween-20, 0.2 mg/ml BSA; 25 C; 10 min per concentration, then washed
Conditions: tags: His6-TwinStrep-SUMO cleaved; N-terminal SNAP kept (SNAP-Surface 488); label: 3' end held by stalled T7 RNA polymerase

Row | Binder | Kd
1 | target 1 insU 3' of 5,insA 3' of 4 (mixed) RNA 1: CACCCGUGCAAAAAUGCAGGGGUCUAAAACUGAGCGGAUAACCUCUCUAUGG RNA 2: GGGAAUGGAUCCACAUCUACGAAUUCGUACCAUAGAGAGGUUAUCCGUCAUCACCGAGAUCGGAAGAGCACACGU | 16.2 ± 1.2 nM
2 | target 2 MT 5'PFS AUU 3'PFS AGG (mixed) RNA 1: CACCCGUGCAAAAUUGCAGGGGUCUAAAACCUUCUCCAAAUUGUUUCAUCCU RNA 2: GGGAAUGGAUCCACAUCUACGAAUUCAUUAGGAUGAAACAAUUUGGAGAAGAGGAGAUCGGAAGAGCACACGU | 13 ± 2.9 nM
3 | target 2 MT 5'PFS UUG 3'PFS UUC (mixed) RNA 1: CACCCGUGCAAAAUUGCAGGGGUCUAAAACCUUCUCCAAAUUGUUUCAUCCU RNA 2: GGGAAUGGAUCCACAUCUACGAAUUCUUGAGGAUGAAACAAUUUGGAGAAGUUCAGAUCGGAAGAGCACACGU | 64 ± 20 nM
4 | target 2 MT 5'PFS AUU 3'PFS AGC (mixed) RNA 1: CACCCGUGCAAAAUUGCAGGGGUCUAAAACCUUCUCCAAAUUGUUUCAUCCU RNA 2: GGGAAUGGAUCCACAUCUACGAAUUCAUUAGGAUGAAACAAUUUGGAGAAGAGCAGAUCGGAAGAGCACACGU | 6.4 ± 0.8 nM
5 | target 2 MT 5'PFS AUU 3'PFS CGA (mixed) RNA 1: CACCCGUGCAAAAUUGCAGGGGUCUAAAACCUUCUCCAAAUUGUUUCAUCCU RNA 2: GGGAAUGGAUCCACAUCUACGAAUUCAUUAGGAUGAAACAAUUUGGAGAAGCGAAGAUCGGAAGAGCACACGU | 5.5 ± 0.4 nM
6 | target 2 MT 5'PFS AGA 3'PFS UAU (mixed) RNA 1: CACCCGUGCAAAAUUGCAGGGGUCUAAAACCUUCUCCAAAUUGUUUCAUCCU RNA 2: GGGAAUGGAUCCACAUCUACGAAUUCAGAAGGAUGAAACAAUUUGGAGAAGUAUAGAUCGGAAGAGCACACGU | 7.4 ± 1.4 nM
7 | target 2 MT 5'PFS AUU 3'PFS AGU (mixed) RNA 1: CACCCGUGCAAAAUUGCAGGGGUCUAAAACCUUCUCCAAAUUGUUUCAUCCU RNA 2: GGGAAUGGAUCCACAUCUACGAAUUCAUUAGGAUGAAACAAUUUGGAGAAGAGUAGAUCGGAAGAGCACACGU | 4.5 ± 0.4 nM
8 | target 2 MT 5'PFS AAC 3'PFS UGU (mixed) RNA 1: CACCCGUGCAAAAUUGCAGGGGUCUAAAACCUUCUCCAAAUUGUUUCAUCCU RNA 2: GGGAAUGGAUCCACAUCUACGAAUUCAACAGGAUGAAACAAUUUGGAGAAGUGUAGAUCGGAAGAGCACACGU | 6.9 ± 1.2 nM
9 | target 2 MT 5'PFS UUG 3'PFS CUC (mixed) RNA 1: CACCCGUGCAAAAUUGCAGGGGUCUAAAACCUUCUCCAAAUUGUUUCAUCCU RNA 2: GGGAAUGGAUCCACAUCUACGAAUUCUUGAGGAUGAAACAAUUUGGAGAAGCUCAGAUCGGAAGAGCACACGU | 37 ± 8 nM
10 | target 2 MT 5'PFS UAG 3'PFS UGU (mixed) RNA 1: CACCCGUGCAAAAUUGCAGGGGUCUAAAACCUUCUCCAAAUUGUUUCAUCCU RNA 2: GGGAAUGGAUCCACAUCUACGAAUUCUAGAGGAUGAAACAAUUUGGAGAAGUGUAGAUCGGAAGAGCACACGU | 4.9 ± 0.5 nM
11 | target 2 MT 5'PFS UAG 3'PFS UGC (mixed) RNA 1: CACCCGUGCAAAAUUGCAGGGGUCUAAAACCUUCUCCAAAUUGUUUCAUCCU RNA 2: GGGAAUGGAUCCACAUCUACGAAUUCUAGAGGAUGAAACAAUUUGGAGAAGUGCAGAUCGGAAGAGCACACGU | 2.73 ± 0.25 nM
12 | target 2 MT 5'PFS AUU 3'PFS AGA (mixed) RNA 1: CACCCGUGCAAAAUUGCAGGGGUCUAAAACCUUCUCCAAAUUGUUUCAUCCU RNA 2: GGGAAUGGAUCCACAUCUACGAAUUCAUUAGGAUGAAACAAUUUGGAGAAGAGAAGAUCGGAAGAGCACACGU | 5.4 ± 0.8 nM
13 | target 2 MT 5'PFS CAU 3'PFS ACU (mixed) RNA 1: CACCCGUGCAAAAUUGCAGGGGUCUAAAACCUUCUCCAAAUUGUUUCAUCCU RNA 2: GGGAAUGGAUCCACAUCUACGAAUUCCAUAGGAUGAAACAAUUUGGAGAAGACUAGAUCGGAAGAGCACACGU | 9 ± 1.9 nM

— paper PMC10786891, “Massively parallel profiling of RNA-targeting CRISPR-Cas13d”
